The assay addresses F-actin (actin from rabbit skeletal muscle) (rabbit) (UniProt P68135).

For “Myo IX headΔext (motor domain lacking the N-terminal extension) (domain or fragment)”, the run length λ of Qdot-labelled myosin moving along immobilised actin filaments (stepping assay) turned out to be 2.9 µm.

The values above are taken from article PMC3887004.
